*1 amine or outer side, *2 acyl side, *3 side chain or, on linkers, in order; H or OH if unused. Side-chain parts run from the residue outwards. The star is where a group is joined. C18 diacid = O=C(O)CCCCCCCCCCCCCCCCC(=O)*; γGlu = O=C(O)[C@H](CCC(=O)[*:2])N[*:1]; Isovaleryl = CC(C)CC(=O)*; Ahx = NCCCCCC(=O)O
Biological target: T1, human NPY2 receptor (human, UniProt P49146 1-381)
T1 construct: whole, on cells; also called hNPY2-R; hNPY2R
T1 sequence (looked up): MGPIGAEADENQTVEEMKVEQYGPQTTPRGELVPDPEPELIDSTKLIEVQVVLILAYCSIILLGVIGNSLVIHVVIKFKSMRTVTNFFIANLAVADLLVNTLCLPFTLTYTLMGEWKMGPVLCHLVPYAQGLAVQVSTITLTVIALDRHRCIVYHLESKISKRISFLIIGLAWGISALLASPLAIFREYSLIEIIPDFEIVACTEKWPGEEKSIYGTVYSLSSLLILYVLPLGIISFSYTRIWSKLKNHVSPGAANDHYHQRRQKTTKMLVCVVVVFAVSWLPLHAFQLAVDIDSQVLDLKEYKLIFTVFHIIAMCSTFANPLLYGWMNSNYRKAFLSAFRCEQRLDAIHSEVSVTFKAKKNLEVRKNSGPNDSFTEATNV
Experiment: RLB: displacement of 125I-PYY(1-36) from hNPY2R membranes

Binder	Ki
Isovaleryl-APAK([Ahx-γGlu-C18 diacid])PEEDATPEEAQRYYVSLRHYYNWLTRQRY-NH2 (SMILES CC(C)CC(=O)N[C@@H](C)C(=O)N1CCC[C@H]1C(=O)N[C@@H](C)C(=O)N[C@@H](CCCCNC(=O)CCCCCNC(=O)CC[C@H](NC(=O)CCCCCCCCCCCCCCCCC(=O)O)C(=O)O)C(=O)N1CCC[C@H]1C(=O)N[C@@H](CCC(=O)O)C(=O)N[C@@H](CCC(=O)O)C(=O)N[C@@H](CC(=O)O)C(=O)N[C@@H](C)C(=O)N[C@H](C(=O)N1CCC[C@H]1C(=O)N[C@@H](CCC(=O)O)C(=O)N[C@@H](CCC(=O)O)C(=O)N[C@@H](C)C(=O)N[C@@H](CCC(N)=O)C(=O)N[C@@H](CCCNC(=N)N)C(=O)N[C@@H](Cc1ccc(O)cc1)C(=O)N[C@@H](Cc1ccc(O)cc1)C(=O)N[C@H](C(=O)N[C@@H](CO)C(=O)N[C@@H](CC(C)C)C(=O)N[C@@H](CCCNC(=N)N)C(=O)N[C@@H](Cc1c[nH]cn1)C(=O)N[C@@H](Cc1ccc(O)cc1)C(=O)N[C@@H](Cc1ccc(O)cc1)C(=O)N[C@@H](CC(N)=O)C(=O)N[C@@H](Cc1c[nH]c2ccccc12)C(=O)N[C@@H](CC(C)C)C(=O)N[C@H](C(=O)N[C@@H](CCCNC(=N)N)C(=O)N[C@@H](CCC(N)=O)C(=O)N[C@@H](CCCNC(=N)N)C(=O)N[C@@H](Cc1ccc(O)cc1)C(N)=O)[C@@H](C)O)C(C)C)[C@@H](C)O) [Compound 57]	2.07 nM
Isovaleryl-APEK([Ahx-γGlu-C18 diacid])PEEDATPEEVQRYYVSLRHYYNWLTRQRY-NH2 (SMILES CC(C)CC(=O)N[C@@H](C)C(=O)N1CCC[C@H]1C(=O)N[C@@H](CCC(=O)O)C(=O)N[C@@H](CCCCNC(=O)CCCCCNC(=O)CC[C@H](NC(=O)CCCCCCCCCCCCCCCCC(=O)O)C(=O)O)C(=O)N1CCC[C@H]1C(=O)N[C@@H](CCC(=O)O)C(=O)N[C@@H](CCC(=O)O)C(=O)N[C@@H](CC(=O)O)C(=O)N[C@@H](C)C(=O)N[C@H](C(=O)N1CCC[C@H]1C(=O)N[C@@H](CCC(=O)O)C(=O)N[C@@H](CCC(=O)O)C(=O)N[C@H](C(=O)N[C@@H](CCC(N)=O)C(=O)N[C@@H](CCCNC(=N)N)C(=O)N[C@@H](Cc1ccc(O)cc1)C(=O)N[C@@H](Cc1ccc(O)cc1)C(=O)N[C@H](C(=O)N[C@@H](CO)C(=O)N[C@@H](CC(C)C)C(=O)N[C@@H](CCCNC(=N)N)C(=O)N[C@@H](Cc1c[nH]cn1)C(=O)N[C@@H](Cc1ccc(O)cc1)C(=O)N[C@@H](Cc1ccc(O)cc1)C(=O)N[C@@H](CC(N)=O)C(=O)N[C@@H](Cc1c[nH]c2ccccc12)C(=O)N[C@@H](CC(C)C)C(=O)N[C@H](C(=O)N[C@@H](CCCNC(=N)N)C(=O)N[C@@H](CCC(N)=O)C(=O)N[C@@H](CCCNC(=N)N)C(=O)N[C@@H](Cc1ccc(O)cc1)C(N)=O)[C@@H](C)O)C(C)C)C(C)C)[C@@H](C)O) [Compound 58]	3.46 nM
Isovaleryl-APAK([Ahx-γGlu-C18 diacid])PEEDASPEELQRYYVQLRHYYNWLTRQRY-NH2 (SMILES CC(C)CC(=O)N[C@@H](C)C(=O)N1CCC[C@H]1C(=O)N[C@@H](C)C(=O)N[C@@H](CCCCNC(=O)CCCCCNC(=O)CC[C@H](NC(=O)CCCCCCCCCCCCCCCCC(=O)O)C(=O)O)C(=O)N1CCC[C@H]1C(=O)N[C@@H](CCC(=O)O)C(=O)N[C@@H](CCC(=O)O)C(=O)N[C@@H](CC(=O)O)C(=O)N[C@@H](C)C(=O)N[C@@H](CO)C(=O)N1CCC[C@H]1C(=O)N[C@@H](CCC(=O)O)C(=O)N[C@@H](CCC(=O)O)C(=O)N[C@@H](CC(C)C)C(=O)N[C@@H](CCC(N)=O)C(=O)N[C@@H](CCCNC(=N)N)C(=O)N[C@@H](Cc1ccc(O)cc1)C(=O)N[C@@H](Cc1ccc(O)cc1)C(=O)N[C@H](C(=O)N[C@@H](CCC(N)=O)C(=O)N[C@@H](CC(C)C)C(=O)N[C@@H](CCCNC(=N)N)C(=O)N[C@@H](Cc1c[nH]cn1)C(=O)N[C@@H](Cc1ccc(O)cc1)C(=O)N[C@@H](Cc1ccc(O)cc1)C(=O)N[C@@H](CC(N)=O)C(=O)N[C@@H](Cc1c[nH]c2ccccc12)C(=O)N[C@@H](CC(C)C)C(=O)N[C@H](C(=O)N[C@@H](CCCNC(=N)N)C(=O)N[C@@H](CCC(N)=O)C(=O)N[C@@H](CCCNC(=N)N)C(=O)N[C@@H](Cc1ccc(O)cc1)C(N)=O)[C@@H](C)O)C(C)C) [Compound 59]	1.93 nM
Isovaleryl-APEK([Ahx-γGlu-C18 diacid])PEEDASPEELQRYYVSLRHYYQWLTRQRY-NH2 (SMILES CC(C)CC(=O)N[C@@H](C)C(=O)N1CCC[C@H]1C(=O)N[C@@H](CCC(=O)O)C(=O)N[C@@H](CCCCNC(=O)CCCCCNC(=O)CC[C@H](NC(=O)CCCCCCCCCCCCCCCCC(=O)O)C(=O)O)C(=O)N1CCC[C@H]1C(=O)N[C@@H](CCC(=O)O)C(=O)N[C@@H](CCC(=O)O)C(=O)N[C@@H](CC(=O)O)C(=O)N[C@@H](C)C(=O)N[C@@H](CO)C(=O)N1CCC[C@H]1C(=O)N[C@@H](CCC(=O)O)C(=O)N[C@@H](CCC(=O)O)C(=O)N[C@@H](CC(C)C)C(=O)N[C@@H](CCC(N)=O)C(=O)N[C@@H](CCCNC(=N)N)C(=O)N[C@@H](Cc1ccc(O)cc1)C(=O)N[C@@H](Cc1ccc(O)cc1)C(=O)N[C@H](C(=O)N[C@@H](CO)C(=O)N[C@@H](CC(C)C)C(=O)N[C@@H](CCCNC(=N)N)C(=O)N[C@@H](Cc1c[nH]cn1)C(=O)N[C@@H](Cc1ccc(O)cc1)C(=O)N[C@@H](Cc1ccc(O)cc1)C(=O)N[C@@H](CCC(N)=O)C(=O)N[C@@H](Cc1c[nH]c2ccccc12)C(=O)N[C@@H](CC(C)C)C(=O)N[C@H](C(=O)N[C@@H](CCCNC(=N)N)C(=O)N[C@@H](CCC(N)=O)C(=O)N[C@@H](CCCNC(=N)N)C(=O)N[C@@H](Cc1ccc(O)cc1)C(N)=O)[C@@H](C)O)C(C)C) [Compound 60]	6.04 nM
Isovaleryl-APEK([Ahx-γGlu-C18 diacid])PPADASPEEIQRYYVSLRHYYNWLTRQRY-NH2 (SMILES CC[C@H](C)[C@H](NC(=O)[C@H](CCC(=O)O)NC(=O)[C@H](CCC(=O)O)NC(=O)[C@@H]1CCCN1C(=O)[C@H](CO)NC(=O)[C@H](C)NC(=O)[C@H](CC(=O)O)NC(=O)[C@H](C)NC(=O)[C@@H]1CCCN1C(=O)[C@@H]1CCCN1C(=O)[C@H](CCCCNC(=O)CCCCCNC(=O)CC[C@H](NC(=O)CCCCCCCCCCCCCCCCC(=O)O)C(=O)O)NC(=O)[C@H](CCC(=O)O)NC(=O)[C@@H]1CCCN1C(=O)[C@H](C)NC(=O)CC(C)C)C(=O)N[C@@H](CCC(N)=O)C(=O)N[C@@H](CCCNC(=N)N)C(=O)N[C@@H](Cc1ccc(O)cc1)C(=O)N[C@@H](Cc1ccc(O)cc1)C(=O)N[C@H](C(=O)N[C@@H](CO)C(=O)N[C@@H](CC(C)C)C(=O)N[C@@H](CCCNC(=N)N)C(=O)N[C@@H](Cc1c[nH]cn1)C(=O)N[C@@H](Cc1ccc(O)cc1)C(=O)N[C@@H](Cc1ccc(O)cc1)C(=O)N[C@@H](CC(N)=O)C(=O)N[C@@H](Cc1c[nH]c2ccccc12)C(=O)N[C@@H](CC(C)C)C(=O)N[C@H](C(=O)N[C@@H](CCCNC(=N)N)C(=O)N[C@@H](CCC(N)=O)C(=O)N[C@@H](CCCNC(=N)N)C(=O)N[C@@H](Cc1ccc(O)cc1)C(N)=O)[C@@H](C)O)C(C)C) [Compound 61]	0.41 nM
Isovaleryl-APAK([Ahx-γGlu-C18 diacid])PPEDASPEELQRYYVELRHYYNWLTRQRY-NH2 (SMILES CC(C)CC(=O)N[C@@H](C)C(=O)N1CCC[C@H]1C(=O)N[C@@H](C)C(=O)N[C@@H](CCCCNC(=O)CCCCCNC(=O)CC[C@H](NC(=O)CCCCCCCCCCCCCCCCC(=O)O)C(=O)O)C(=O)N1CCC[C@H]1C(=O)N1CCC[C@H]1C(=O)N[C@@H](CCC(=O)O)C(=O)N[C@@H](CC(=O)O)C(=O)N[C@@H](C)C(=O)N[C@@H](CO)C(=O)N1CCC[C@H]1C(=O)N[C@@H](CCC(=O)O)C(=O)N[C@@H](CCC(=O)O)C(=O)N[C@@H](CC(C)C)C(=O)N[C@@H](CCC(N)=O)C(=O)N[C@@H](CCCNC(=N)N)C(=O)N[C@@H](Cc1ccc(O)cc1)C(=O)N[C@@H](Cc1ccc(O)cc1)C(=O)N[C@H](C(=O)N[C@@H](CCC(=O)O)C(=O)N[C@@H](CC(C)C)C(=O)N[C@@H](CCCNC(=N)N)C(=O)N[C@@H](Cc1c[nH]cn1)C(=O)N[C@@H](Cc1ccc(O)cc1)C(=O)N[C@@H](Cc1ccc(O)cc1)C(=O)N[C@@H](CC(N)=O)C(=O)N[C@@H](Cc1c[nH]c2ccccc12)C(=O)N[C@@H](CC(C)C)C(=O)N[C@H](C(=O)N[C@@H](CCCNC(=N)N)C(=O)N[C@@H](CCC(N)=O)C(=O)N[C@@H](CCCNC(=N)N)C(=O)N[C@@H](Cc1ccc(O)cc1)C(N)=O)[C@@H](C)O)C(C)C) [Compound 62]	1.44 nM

Reference: patent US20260015399A1 (Boehringer Ingelheim, published 2026)
